We go through one protein from US8034579B2, “Proteins with enhanced functionality and methods of making novel proteins using circular permutation” (Emory University, priority 2005, dated 2011).

Substrate in data set [1]: CCCC(=O)Oc1ccc([N+](=O)[O-])cc1
The data set can be described thus: Initial rate of hydrolysis of p-nitrophenol butyrate (pNB), wild type. It counts as biochemical, Candida antarctica. Particulars: other: wild type, 50 mM K-phosphate pH 7.5, room temperature. The source says: (§1) Kinetic analysis of protein variants: To examine the impact of circular permutation on catalysis eleven functional CALB variants with termini in or near the active site were selected for detailed kinetic characterization. The locations of the termini in these variants are shown on the structure of CALB in FIG. 6; the numbers correspond to the amino acid residue of the new terminus. Following overexpression in P. pastoris, the selected circularly permuted proteins were purified to homogeneity. The catalytic performance of these variants was determined in activity assays with two standard lipase substrates, measuring the initial rates of hydrolysis of the chromogenic substrate p-nitrophenol butyrate (pNB) and the fluorogenic substrate 6,8-difluoro-4-methylumbelliferyl (DiFMU) octanoate.
(§2) The overexpression and purification of wild type CALB was performed as described in Rotticci-Mulder, J. C. et al., Protein Expr Purif 2001, 21, (3), 386-92, which is hereby incorporated by reference. The same protocol was adopted for the isolation of circular permutation variants of CALB. Briefly, pPIC9-ca/B was linearized by SacI digestion and electroporated into P. pastoris cells (GS115). […]
(§3) Lipase activity was determined by measuring the initial hydrolysis rate of p-NB and DiFMU octanoate at room temperature on a Synergy-HT microtiterplate reader (Bio-Tek Instruments, Winooski, Vt.). Stock solutions of p-NB (200 mM) and DiFMU octanoate (3 mM) were prepared in DMSO. p-NB hydrolysis over a substrate range of 0-1.6 mM was measured in 50 mM K-phosphate buffer (pH 7.5) at 400 nm ( ? for p-NB=13260 M^1 cm^−1) as described in Bender, M. L. et al., J Am Chem Soc 1968, 90, (1), 201-7, which is hereby incorporated by reference. The rate of DiFMU octanoate hydrolysis was determined by measuring the DiFMU formation over a substrate range of 0-12 μM in 50 mM K-phosphate buffer (pH 7.0) at an excitation/emission wavelength 360/460 nm. Kinetic constants were calculated by fitting the initial rates to the Michaelis-Menten equation using the Origin® software (version 7; OriginLab Corporation).

Substrate in data set [2]: CCCCCCCC(=O)Oc1c(F)cc2c(C)cc(=O)oc2c1F
The data set can be described thus: Initial rate of hydrolysis of DiFMU octanoate, wild type. It counts as biochemical, Candida antarctica. Particulars: other: wild type, 50 mM K-phosphate pH 7.0, room temperature.
Excerpt: as §1, §2, §3

B1: Candida antarctica lipase B (CALB), wild type, SEQ ID NO: 2, L1/P317 (Moesziomyces antarcticus) (protein)
chain: LPSGSDPAFSQPKSVLDAGLTCQGASPSSVSKPILLVPGTGTTGPQSFDSNWIPLSAQLGYTPCWISPPPFMLNDTQVNTEYMVNAITTLYAGSGNNKLPVLTWSQGGLVAQWGLTFFPSIRSKVDRLMAFAPDYKGTVLAGPLDALAVSAPSVWQQTTGSALTTALRNAGGLTQIVPTTNLYSATDEIVQPQVSNSPLDSSYLFNGKNVQAQAVCGPLFVIDHAGSLTSQFSYVVGRSALRSTTGQARSADYGITDCNPLPANDLTPEQKVAAAALLAPAAAAIVAGPKQNCEPDLMPYARPFAVGKRTCSGIVTP
Consider B1, for which, in data set [1], the Km is 410 ± 40 µM, the kcat stood at 5.08 ± 0.167 s⁻¹ and the kcat/Km is 12300 M⁻¹ s⁻¹. Further, in data set [2], the Michaelis-Menten constant (Km) came to 2.6 ± 0.3 µM, the turnover number (kcat) turned out to be 0.033 ± 0.0017 s⁻¹ and the kcat/Km turned out to be 13000 M⁻¹ s⁻¹.

In general, Km refers to the concentration of substrate that gives half-maximal velocity. The kcat is the maximal rate divided by the concentration of active sites. One may read the kcat/Km as the turnover number divided by the Michaelis constant.
